Results: the DeepSol protein solubility set

Experiment: soluble on expression in E. coli; label from the status in PepcDB or PDB records

Row | Sequence | soluble on expression in E. coli
1 | MQPEFWNDKRPAGVPDSLDFAAYRSVVEVFERSCKKFADRPAFSNLGVTLSYAELDRLSAAFAAYLQKQTDLQPGDRIAVQMPNVLQYPIAVFGALRAGLVVVNTNPLYTAREMRHQFKDAGVRALVYLNVFGKLVEEVLPDTRIEYLIEARMGDLLPALKGWLVNSVVKSVKKMVPDYRLPQALPFRQALKQGQGHALQPVRVGLEDVAVLQYTGGTTGVSKGAMLTHGNLVANMLQVHAQLSQLGKDGLPLMKEAQEVMIAPLPLYHIYAFTANCMCMMVSGNHNVLITNPRDIPGFVKELKKWRFSALLGLNTLFVALMEHPGFKDVDFSNLKLTNSGGTALVSATAERWKGVTGCTVVEGYGLTECSPVVTTNPYGEQARLGTVGIPVVGTALKVIDEQGNELPVGERGELCVKGPQVMKGYWQRPEATEEILDAEGWLKTGDIAVIDEDGFVRIVDRKKDLILVSGFNVYPNEIEDVVMAHPKVASCAAVGIPDEKSGEAVKLFVVARDPSLSVEELKAYCKENLTGYKIPRQIVLKDALPMTPVGKILR | not soluble
2 | MQPERYVWAKYFWEQARDANGVARRHLGDTTRNNGAPTVGSPFVALCGIDVTPHPEDTDTARGTCFAPACMVCTTLFARATGWSAGAIGNLIQTFQWTNNDVRQLGLALGMTASQTRRQIEQWTQEADKVNKARHTAKQQKAAGR | not soluble
3 | MQPKVVYGNAAVEGVNRWGWFMGHFITPEDDPRSTEMLEVKWAVHKAGDSRTEWAVNNQAATLSILIDGEFRLQFEDREILLSREGDYVLWCAGVPHWWVAESDCTILTVRWPSKPGDSVALPEESKS | soluble
4 | MQQALLDHLRVVTEEEQRILDGVAEVDKDLYTSGKDFTVDSAKMLSEGKLIAVRTHTRFVHFPSHRHNYIEVLYVCQGQLTNIIGGKEVVIHAGELLFLNQYTRHEILPAGEEDIAINFMILPEFFDVAYTMAGNNNVLADFLVNVLRQDEERGEYLHFKVAEVLQIQNLLENMIYSLVTGKGDQNRINQTTMGLIFLYLLESVQYAEMRLPNQYENMIIMTTLDYIEQQYKTATLTELCEKLHLPMHMLSKMIRKNTGFNFKELLQRKRLNKAVELMCETDLPISDIIAAVGYENGSYFHRVFKERYHTTPRAFRVANGKEERVRL | not soluble
5 | MQQPEQYCRFLCLVAHEFFHLWNIKRIRPQAFEVFDYDSENYTTSLWFVEGVTSYFDQLIPLWAGLFDAPTYLKLLSDSLNRYFHTPGRFVQSLSAASFDAWIKLYRPDENSINSQMSYYLKGELVALEHHHHHH | soluble
6 | MQRGKVKWFNNEKGYGFIEVEGGSDVFVHFTAIQGEGFKTLEEGQEVSFEIVQGNRGPQAANVTKEA | soluble
7 | MQRKLNQSLLLAEAYFKRKFTMPEVNYELRGIKAGVAYLQKNEIKFNRTLLQENTDEFIRQVVPHELAHLIVYQMFGRVKPHGKEWQLVMNEIFKLPADTCHQFDIKNVQGKTFEYRCACQTHFLTIRRHNKIMKENIEYLCKKCRGKLVFVDDEELEHHHHHH | not soluble
8 | MQSKLITELTDLETAFHIRKEVFVKEQGVPLTDEFDTFDEIGEQCKHILVYYHELPVGTGRIRFVDGVGKLERICILKDYRTYGLGKVIIQTLEEIARNEQATKVKLHGQTQAEGFYKKLGYETSSDIFMEDGIPHILMTKMLS | not soluble
9 | MQSLDPLFARLSRSKFRSRFRLGMKERQYCLEKGAPVIEQHAADFVAKRLAPALPANDGKQTPMRGHPVFIAQHATATCCRGCLAKWHNIPQGVSLSEEQQRYIVAVIYHWLVVQMNQP | soluble
10 | MQSLMNNPVTRSNAPCLIVGIGYTTGSVRDLAQRAADYTPPLGDNATADERRQFGQADRFADFIDSELTAFLESRYTLNRNETAVFGHSFGALFGLYSLLSHRCFRRHWLVSPSIWWHNRRILDFMPSENRLDGIDACLNIGALERSSGCKRREERDMAGQAEQMAAELDRRGTAVFFREYPNADHGNVPFYSLTDCVEYLRE | not soluble
11 | MQSRKRLDAELVRRKIARSREQAVEMIKDGRVHVQGFVAKKPATQVTPEASIRVEDAGLDDWASRGAHKLLGALAEFKSKGLNVSGRRALDAGASTGGFTDVLLRESASEVVAVDVGYGQLIWRLQNDARVKVLDRTNIRNLSLEITDGPCDLMVGDLSFISLKLTLPAIAACMSDGADLLPMVKPQFEVGKERLGHGGVVRDPKLRAEVTEDIALFAQQLGLSFVDVVASPLPGPSGNVEYFLWLKKDSGRSAKGLHEIHEKVAEAVQKGPQ | not soluble
12 | MQSYTNRICAVCGDTPAKIHYGVLACFGCKGFFRRAVKDGRNKYVCRFEKNCEVTKFERNACRYCRFRKCLLVGMNPDYVRPDREKSKKGKTVLSKKKSVSRSLSYRLADPSDWTSFLSPSSRKQLSEIGKLAETCSTSTNFDGIGNFSLKSLIADRSLARKTGDSEAMDCSNSPRQLNEQFLGIERIVQCVDYIDRFLVMLEEEHCRKFSVEDKSALISDTMIHLLLFESTSRFVAKGAPGLEDLKLSLAQLPICTTHLTQKIADVFETYLRKPPSIIEYSVLKAYIVLSAESTVLSNSLNESLSLARENLSELLFKVIKHSRNKTSISAANSLSTILHFVYESRNLASRIRQSQQPFFVRDSDPKIPFHKILTDIINPEVSDLLLTTANCRKLSTQMGSSLSSVPPVPPPSDTVPLFHFSPPSLSPCQISAPPPPQQQYTDYSQMPSTSSYPANSSPFQSPYRPNSLSSFPKIPLEMTKSIEEFLRPNGMTTDEMNKPLEKNWADGFRLTPVFNKDIVSQFFPELSNINQHHPF | not soluble
13 | MQTELTGKLQKLGFTENEAKIYIGLLRQGEVTAREIHEFTHVPRTKIYSTLNRMSKKKYIEVIEGTPAYFRSIDPEQLLERLRDEFLFSLNETLEELNSAGYGMKNKCC | not soluble
14 | MQTENKTSPYYRTKLRGLYTTAKADAEAECSILRRALDKIAEIKSLLEERRIAARMAGVYSDNDPPRKTMRRGVLMTLLQQSAMTLPLWIGKPGESPPPLCGAIPASSDYVAKQGDKVAARVKAVDGDEQWILAEVVSYNHSTNKYEVDDIDEEGKERHTLSRRRIIPLPQWEANPETDPEALFSKDQLVLALYPQTTCFYRALIHTPPHRPQDDYSVLFEDTSYADGYSPPLNVAQRYVVACKENKKK | not soluble
15 | MQTFEIKEEFLVDGKPTKLISGAIHYFRMTPAQWEDSLYNLKALGANTIETYIPWNLHEPVEGVYDFEGMKDIVAFVSLAQELGLMVILRPSVYICAEWEFGGLPAWLLKEHVRLRSTDPRFIAKVRTYFSVLLPKLVPLQVTHGGPVIMMQVENEYGSYGMEKEYLRQTKQVMEEFGIDVPLFTSDGAWEEVLDVGTLIEEDVFVTGNFGSHSKENATVMKAFMAKHDKKWPIMCMEYWDGWFNRWGEPIIKRDGQDLANEVKDMLALGSLNLYMFHGGTNFGFYNGCSARGVLDLPQVTSYDYDALLTEAGEPTEKYFHVQRAIKEVCPEVWQAEPRRKTFGSLGTFPVQNSVSLLAVKDQMMTAQETMYPITMEEAESGYGYMLYSVNLKNYHHENKLKVVEASDRLHLFADGSLQTIQYQENLREEVMIKGTPEKEWIELDVLVENLGRVNYGFKLNGPTQVKGIRGGIMQDIHFHQGYRQYALTLSADQLKKIDYTAGKNPAQPSFYQAEFTLTDLADTFIDCRSYGKGVVIVNGINLGRYWQRGPIHSLYCPKEFLKKGTNEIVIFETEGIEINELIFCGQPIVKKLLTNDFSEIGSNIHNHIDS | not soluble
16 | MQTSNITNHERNDSSWMSTVKSTTEVSWNKLSFCDILLKIITFGIYSPHETLAEKHSEKKLMDSFSPSLSQDKMDGEFAHANIDGISIRLCLNKGICSVFYLDGDKIQSTQLSSKEYNNLLSSLPPKQFNLGKVHTITAPVSGNFKTHKPAPEVIETAINCCTSIIPNDDYFHVKDTDFNSVWHDIYRDIRASDSNSTKIYFNNIEIPLKLIADLINELGINEFIDSKKELQMLSYNQVNKIINSNFPQQDLCFQTEKLLFTSLFQDPAFISALTSAFWQSLHITSSSVEHIYAQIMSENIENRLNFMPEQRVINNCGHIIKINAVVPKNDTAISASGGRAYEVSSSILPSHITCNGVGINKIETSYLVHAGTLPSSEGLRNAIPPESRQVSFAIISPDV | not soluble
17 | MQTSPLLTQLMEALRCLPGVGPKSAQRMAFTLLQRDRSGGMRLAQALTRAMSEIGHCADCRTFTEQDVCNICSNPRRQENGQICVVESPADIYAIEQTGQFSGRYFVLMGHLSPLDGIGPDDIGLDRLEQRLASEKISELILATNPTVEGEATANYIAELCAEAGVEASRIAHGVPVGGELEMVDGTTLSHSLAGRHKIIF | not soluble
